Laboratory results as given in the supplement of paper PMC9112550, “Optimization of the antimicrobial peptide Bac7 by deep mutational scanning” (BMC Biology, 2022).

Test system: Escherichia coli TOP10
Experiment: shrunken log2 fold change of peptide-encoding DNA abundance (4.5 h post-induction vs induction); higher = less antimicrobial activity (less host growth inhibition)
Conditions: time post-induction: 4.5 h; library: site-saturation at positions 5, 18, 19, 20
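Further: peptides expressed intracellularly from a pBAD plasmid library in pooled LB shake-flask culture, induced with 0.3% L-arabinose, DNA abundance read by NGS, three biological replicates, DESeq2 with apeglm shrinkage.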

Sequence	shrunken log2 fold change
RRIRFRPPRLPRPRPRPLWLPRP	-0.0557
RRIRPRPPRLPRPRPRPALVPRP	0.181
RRIRVRPPRLPRPRPRPRKLPRP	-0.0444
RRIRVRPPRLPRPRPRPWPWPRP	0.197
RRIRKRPPRLPRPRPRPNAWPRP	0.0867
RRIRWRPPRLPRPRPRPSGGPRP	2.77
RRIRTRPPRLPRPRPRPEAQPRP	0.00719
RRIRNRPPRLPRPRPRPWFQPRP	-0.109
RRIRKRPPRLPRPRPRPMQGPRP	-0.00992
RRIRTRPPRLPRPRPRPQYSPRP	-0.056
RRIRIRPPRLPRPRPRPRVLPRP	-0.24
RRIRGRPPRLPRPRPRPDQEPRP	1.05
RRIRLRPPRLPRPRPRPFYSPRP	-0.133
RRIRLRPPRLPRPRPRPLIIPRP	-0.631
RRIRERPPRLPRPRPRPRHIPRP	-0.643
RRIRLRPPRLPRPRPRPHGHPRP	-0.126
RRIRVRPPRLPRPRPRPTLAPRP	0.797
RRIRVRPPRLPRPRPRPQAKPRP	0.0434
RRIRNRPPRLPRPRPRPDCCPRP	0.00539
RRIRLRPPRLPRPRPRPIGMPRP	0.0212
RRIRSRPPRLPRPRPRPATAPRP	0.322
RRIRHRPPRLPRPRPRPTLDPRP	0.0219
RRIRKRPPRLPRPRPRPDQEPRP	0.0193
RRIRNRPPRLPRPRPRPAWIPRP	0.275
RRIRERPPRLPRPRPRPMFNPRP	-0.607

Sequence	shrunken log2 fold change
RRIRDRPPRLPRPRPRPNKPPRP	-0.0743
RRIRMRPPRLPRPRPRPSTYPRP	-0.347
RRIRQRPPRLPRPRPRPFWNPRP	-0.00884
RRIRTRPPRLPRPRPRPVGWPRP	0.753
RRIRRRPPRLPRPRPRPNPTPRP	0.0244
RRIRPRPPRLPRPRPRPTECPRP	0.0179
RRIRPRPPRLPRPRPRPTPPPRP	0.477
RRIRWRPPRLPRPRPRPVQGPRP	-0.124
RRIRQRPPRLPRPRPRPISYPRP	0.0146
RRIRWRPPRLPRPRPRPNTFPRP	2.19
RRIRDRPPRLPRPRPRPSQYPRP	-0.697
RRIRLRPPRLPRPRPRPHIIPRP	0.0077
RRIRKRPPRLPRPRPRPFPIPRP	-0.0405
RRIRLRPPRLPRPRPRPFVIPRP	-0.214
RRIRIRPPRLPRPRPRPEWWPRP	-0.0654
RRIRSRPPRLPRPRPRPATWPRP	-0.136
RRIRYRPPRLPRPRPRPPDTPRP	-0.425
RRIRHRPPRLPRPRPRPNNWPRP	-0.269
RRIRIRPPRLPRPRPRPNLGPRP	-0.109
RRIRRRPPRLPRPRPRPTSAPRP	0.274
RRIRGRPPRLPRPRPRPWDIPRP	0.212
RRIRKRPPRLPRPRPRPDPYPRP	-0.0561
RRIRYRPPRLPRPRPRPCDAPRP	-0.255
RRIRIRPPRLPRPRPRPREWPRP	0.0237
RRIRWRPPRLPRPRPRPKVVPRP	0.352

Sequence	shrunken log2 fold change
RRIRGRPPRLPRPRPRPKRTPRP	1.01
RRIRWRPPRLPRPRPRPLRPPRP	0.923
RRIRNRPPRLPRPRPRPQEKPRP	-0.198
RRIRGRPPRLPRPRPRPPANPRP	1.12
RRIRNRPPRLPRPRPRPAWNPRP	-0.0495
RRIRYRPPRLPRPRPRPNTEPRP	-0.0461
RRIRSRPPRLPRPRPRPLWYPRP	-0.327
RRIRTRPPRLPRPRPRPGNPPRP	-0.34
RRIRFRPPRLPRPRPRPIAHPRP	-0.109
RRIRLRPPRLPRPRPRPPQHPRP	0.197
RRIRNRPPRLPRPRPRPDFIPRP	-0.111
RRIRCRPPRLPRPRPRPLSSPRP	-0.173
RRIRWRPPRLPRPRPRPMFIPRP	-0.378
RRIRYRPPRLPRPRPRPTMCPRP	-0.159
RRIRSRPPRLPRPRPRPILAPRP	-0.162
RRIRVRPPRLPRPRPRPLWMPRP	-0.523
RRIRQRPPRLPRPRPRPSDCPRP	-0.756
RRIRARPPRLPRPRPRPPTWPRP	1.67
RRIRQRPPRLPRPRPRPRWNPRP	-0.0799
RRIRSRPPRLPRPRPRPVDVPRP	0.126
RRIRERPPRLPRPRPRPLDCPRP	-0.161
RRIRDRPPRLPRPRPRPFCLPRP	0.0132
RRIRWRPPRLPRPRPRPPDPPRP	0.296
RRIRERPPRLPRPRPRPGHCPRP	0.0591
RRIRPRPPRLPRPRPRPMNGPRP	0.137

Sequence	shrunken log2 fold change
RRIRYRPPRLPRPRPRPMDRPRP	-0.0498
RRIRVRPPRLPRPRPRPPQQPRP	0.575
RRIRDRPPRLPRPRPRPWGTPRP	0.0812
RRIRARPPRLPRPRPRPNYHPRP	-0.425
RRIRKRPPRLPRPRPRPGLFPRP	0.556
RRIRHRPPRLPRPRPRPTFPPRP	0.145
RRIRKRPPRLPRPRPRPHLGPRP	-0.00957
RRIRHRPPRLPRPRPRPNQIPRP	-0.327
RRIRARPPRLPRPRPRPDDYPRP	-0.0457
RRIRWRPPRLPRPRPRPWRYPRP	-0.262
RRIRTRPPRLPRPRPRPHFVPRP	-0.239
RRIRRRPPRLPRPRPRPNRQPRP	-0.031
RRIRNRPPRLPRPRPRPEQNPRP	-0.21
RRIRPRPPRLPRPRPRPNTFPRP	-0.0232
RRIRKRPPRLPRPRPRPQTTPRP	0.289
RRIRKRPPRLPRPRPRPYMAPRP	-0.0833
RRIRERPPRLPRPRPRPPINPRP	-0.224
RRIRERPPRLPRPRPRPESIPRP	0.089
RRIRCRPPRLPRPRPRPRINPRP	-0.0891
RRIRIRPPRLPRPRPRPNPAPRP	0.0171
RRIRGRPPRLPRPRPRPYWNPRP	-0.39
RRIRRRPPRLPRPRPRPHMSPRP	-0.0996
RRIRLRPPRLPRPRPRPGVMPRP	0.0751
RRIRGRPPRLPRPRPRPYFSPRP	-0.00993
RRIRKRPPRLPRPRPRPHCDPRP	0.266

Sequence	shrunken log2 fold change
RRIRGRPPRLPRPRPRPGWCPRP	0.484
RRIRWRPPRLPRPRPRPELAPRP	0.758
RRIRHRPPRLPRPRPRPHMQPRP	-0.616
RRIRIRPPRLPRPRPRPAYNPRP	-0.111
RRIRSRPPRLPRPRPRPYLLPRP	-0.613
RRIRARPPRLPRPRPRPGMAPRP	0.709
RRIRIRPPRLPRPRPRPWSYPRP	-0.427
RRIRARPPRLPRPRPRPNEDPRP	0.334
RRIRVRPPRLPRPRPRPQSEPRP	-0.107
RRIRARPPRLPRPRPRPEVVPRP	1.32
RRIRTRPPRLPRPRPRPTAHPRP	0.0803
RRIRKRPPRLPRPRPRPVWAPRP	0.316
RRIRIRPPRLPRPRPRPVMQPRP	-0.00187
RRIRKRPPRLPRPRPRPCGKPRP	0.00875
RRIRIRPPRLPRPRPRPKRCPRP	-0.00138
RRIRLRPPRLPRPRPRPKRKPRP	-0.314
RRIRVRPPRLPRPRPRPMFQPRP	-0.267
RRIRLRPPRLPRPRPRPIFCPRP	-0.314
RRIRARPPRLPRPRPRPIIAPRP	0.00311
RRIRPRPPRLPRPRPRPYILPRP	-0.588
RRIRRRPPRLPRPRPRPWRNPRP	0.0985
RRIRMRPPRLPRPRPRPVIGPRP	-0.0424
RRIRKRPPRLPRPRPRPLNTPRP	0.143
RRIRPRPPRLPRPRPRPGAAPRP	0.552
RRIRGRPPRLPRPRPRPFLSPRP	0.162
